Reference: paper PMC8041770

Key:
[1] = biological target: yeast surface-displayed human LIF (Ser23 to Phe203) (human) (UniProt P15018); test: flow cytometry on cells; hLIF displayed on yeast, soluble Fc fusion titrated in PBS with 1 mg/ml BSA; bound Fc detected by fluorescent anti-Fc antibody; apparent Kd by non-linear regression
[2] = biological target: recombinant human LIF, histidine-tagged (hLIF-His) (human) (UniProt P15018)
[3] = biological target: recombinant human LIF, histidine-tagged (hLIF-His) (human) (UniProt P15018); test: Kinetic Exclusion Assay (KinExA); both partners soluble; hLIF-His constant (100 pM for eLIFR-Fc, 250 pM for hLIFR-Fc), LIFR-Fc serially diluted, 18 h, BPBS with 0.02% sodium azide; free LIF-His captured on LIFR-Fc-coated PMMA beads; apparent Kd, n-curve analysis
[4] = biological target: yeast-displayed human LIF (hLIF, Ser23 to Phe203) (human) (UniProt P15018); test: flow cytometry on cells; LIF displayed on yeast (EBY100), soluble Fc fusion titrated in PBS with 1 mg/ml BSA, Fc detected with fluorescent secondary antibody; apparent Kd by non-linear regression

B1: full-length eLIFR-Fc (Fc fusion)
chain: QKKGAPHDLKCVTNNLQVWNCSWKAPSGTGRGTDYEVCIENRSRSCYQLEKTSIKIPALSHGDYEITINSLHDFGSSTSKFTLNEQNVSLIPDTPEILNLSADFSTSTLYLKWNDRGSVFPHRSNVIWEIKVLRKESMELVKLVTHNTTLNGKDTLHHWSWASDMPLECAIHFVEIRCYIDNLHFSGLEEWSDWSPVKNISWIPDSQTKVFPQDKVVPVGSDITFCCVSQEKVLSALIGRTNCPLIHLDGENVAIKVRNVSASASSGTNVVFITEDDIFGTVIFAGYPPDTPQQLNCETHDLKEIICSWNPGRVTALVGPRATSYTLVESFSGKYVRLKRAEAPTNESYQLLFQMLPNQEIYNFTLNAHNPLGRSQSTILVNITEKVYPHTPTSFKVKDINSTAVKLSWHLPGNFAKINFLCEIEIKKSNSVQEQRNVTIKGVENSSYLVALDKLNPYTLYTFRIRCSTETFWKWSKWSNKKQHLTTEASPSKGPDTWREWSSDGKNLIIYWKPLPINEANGKILSYNVSCSSDEETQSLSEIPDPQHKAEIRLDKNDYIISVVAKNSVGSSPPSKIASMEIPNDDLKIEQVVGMGKGILLTWHYDPNMTCDYVIKWCNSSRSEPCLMDWRKVPSNSTETVIESDEFRPGIRYNFFLYGCRNQGYQLLRSMIGYIEELAPIVAPNFTVEDTSADSILVKWEDIPVEELRGFLRGYLFYFGKGERDTSKMRVLESGRSDIKVKNITDISQKTLRIADLQGKTSYHLVLRAYTDGGVGPEKSMYVVTKENSVGLIIAILIPVAVAVIVGVVTSILCYRKREWIKETFYPDIPNPE
Binder B1 has a Kd [1] of 0.35 nM.

B2: hLIFR-Fc (wild-type human LIFR CBM I–Ig-like–CBM II fused to hIgG1 Fc) (Fc fusion)
chain: QKKGAPHDLKCVTNNLQVWNCSWKAPSGTGRGTDYEVCIENRSRSCYQLEKTSIKIPALSHGDYEITINSLHDFGSSTSKFTLNEQNVSLIPDTPEILNLSADFSTSTLYLKWNDRGSVFPHRSNVIWEIKVLRKESMELVKLVTHNTTLNGKDTLHHWSWASDMPLECAIHFVEIRCYIDNLHFSGLEEWSDWSPVKNISWIPDSQTKVFPQDKVILVGSDITFCCVSQEKVLSALIGHTNCPLIHLDGENVAIKIRNISVSASSGTNVVFTTEDNIFGTVIFAGYPPDTPQQLNCETHDLKEIICSWNPGRVTALVGPRATSYTLVESFSGKYVRLKRAEAPTNESYQLLFQMLPNQEIYNFTLNAHNPLGRSQSTILVNITEKVYPHTPTSFKVKDINSTAVKLSWHLPGNFAKINFLCEIEIKKSNSVQEQRNVTIKGVENSSYLVALDKLNPYTLYTFRIRCSTETFWKWSKWSNKKQHLTTEAS
In the case of B2, the IC50 of inhibition of LIF (20 pM) signalling through LIFR/gp130 in HeLa STAT3 luciferase reporter cells [2] is reported as 1.8 nM and the Kd [3] is reported as 1.1 nM.

B3: C-terminal eLIFR-Fc fusion containing a (Glycine)4Serine linker (Fc fusion)
chain: GGGGSDLKCVTNNLQVWNCSWKAPSGTGRGTDYEVCIENRSRSCYQLEKTSIKIPALSHGDYEITINSLHDFGSSTSKFTLNEQNVSLIPDTPEILNLSADFSTSTLYLKWNDRGSVFPHRSNVIWEIKVLRKESMELVKLVTHNTTLNGKDTLHHWSWASDMPLECAIHFVEIRCYIDNLHFSGLEEWSDWSPVKNISWIPDSQTKVFPQDKVVPVGSDITFCCVSQEKVLSALIGRTNCPLIHLDGENVAIKVRNVSASASSGTNVVFITEDDIFGTVIFAGYPPDTPQQLNCETHDLKEIICSWNPGRVTALVGPRATSYTLVESFSGKYVRLKRAEAPTNESYQLLFQMLPNQEIYNFTLNAHNPLGRSQSTILVNITEKVYPHTPTSFKVKDINSTAVKLSWHLPGNFAKINFLCEIEIKKSNSVQEQRNVTIKGVENSSYLVALDKLNPYTLYTFRIRCSTETFWKWSKWSNKKQHLTTEAS
In the case of B3, the Kd [4] is reported as 0.02 nM.
